Reference: the DeepSol protein solubility set

Experiment: soluble on expression in E. coli; label from the status in PepcDB or PDB records

Sequence | soluble on expression in E. coli
MGSSHHHHHHGGTGENLYFQGGSGSRFYTAKEVREHAFHDDAYVSLNGKVLDLTPLIAAYKEMPKFAHLAKPLVQVAGTDISHWWDAEANDLRSCVDVNSGMRTYAMPLGRVPHMPTIYPDSNIDLNYDIPWWKDPQYIIGALTSRTRRIRIVNTLTGDETTLDVCAEETLEELLRERYLSINAHARSYTWVRLDPDPRELDMSRTLEDNGIHDEADSFEDLGLNADYYIPAIHLYYNDDLTEA | soluble
MDLKGGESMVDWKLMQEIIEAPGVSGYEHLGIRDIVVDVLKEVADEVKVDKLGNVIAHFKGSSPRIMVAAHMDKIGVMVNHIDKDGYLHIVPIGGVLPETLVAQRIRFFTEKGERYGVVGVLPPHLRRGQEDKGSKIDWDQIVVDVGASSKEEAEEMGFRVGTVGEFAPNFTRLNEHRFATPYLDDRICLYAMIEAARQLGDHEADIYIVGSVQEEVGLRGARVASYAINPEVGIAMDVTFAKQPHDKGKIVPELGKGPVMDVGPNINPKLRAFADEVAKKYEIPLQVEPSPRPTGTDANVMQINREGVATAVLSIPIRYMHSQVELADARDVDNTIKLAKALLEELKPMDFTP | soluble
EMFYFEPVNIKKYLGSIGSELSDEVITIEQFFNLNSEYITIIDARSPREFSEKTISNAVNIPLFLTEEYETIGKLYKHEGKEVAIAKAGIIIQDGIKRIVSESLKLDPNKNLVVFCARGGMRSQSIATILKLLGFKVKRLVGGFKSYNISKT | not soluble
PMLEVFYSGDRPPDRTRKQAFAAEASAIFQRVIGTPPGRLQLIIQIVSPENTLAVIDLDRPDSDTTAEPDQQ | soluble
MANSAGSMAPKVFYISDGTAITAEVFGHAVLSQFPLEFESLTIPFVETLAKAENVKRQINDCFITTGERPLVFHSIVKPEIRDIIYSSEGLDYDFLNTFVAPLEQHLGVSASPVLHRTHGKANQGYEARIDAINFAMDNDDGQTMKHMDQADLILLGVSRCGKTPSSLYLSMQFGIKAANYPFTEDDMDNLKLPEALKRNKKKLFGLTIDPVRLHEIRQSRMENSRYSSLKQCRLEVKEVEMMFKRERIPYIDTTNHSVEEIATKILDVTGLERHMFLEHHHHHH | not soluble
MEKMHITNQEHDAFVKSHPNGDLLQLTKWAETKKLTGWYARRIAVGRDGEVQGVAQLLFKKVPKLPYTLCYISRGFVVDYSNKEALNALLDSAKEIAKAEKAYAIKIDPDVEVDKGTDALQNLKALGFKHKGFKEGLSKDYIQPRMTMITPIDKNDDELLNSFERRNRSKVRLALKRGTTVERSDREGLKTFAELMKITGERDGFLTRDISYFENIYDALHEDGDAELFLVKLDPKENIAKVNQELNELHAEIAKWQQKMETSEKQAKKAQNMINDAQNKIAKNEDLKRDLEALEKEHPEGIYLSGALLMFAGSKSYYLYGASSNEFRDFLPNHHMQYTMMKYAREHGATTYDFGGTDNDPDKDSEHYGLWAFKKVWGTYLSEKIGEFDYILNQPLYQLIEQVKPRLTKAKIKISRKLKRK | not soluble
MMKIIAFVGMPASGKSEASRIAAEMGIPVIIMGDVIRKEVLKRGLEPNDSNTGMVATDLRKHEGMGAVARRCISQIRETGSELVVVDGVRGIAEVECFRKEFGKGFILISIYAPIEVRFSRVQKRGRSDDMNSIEGLRHRDERELSWGMGEAIDASNVEIENNFTLETFRKDVRDVLSNYLEADLEK | not soluble
MRYLTAGESHGPRLTAIIEGIPAGLPLTAEDINEDLRRRQGGYGRGGRMKIENDQVVFTSGVRHGKTTGAPITMDVINKDHQKWLDIMSAEDIEDRLKSKRKITHPRPGHADLVGGIKYRFDDLRNSLERSSARETTMRVAVGAVAKRLLAELDMEIANHVVVFGGKEIDVPENLTVAEIKQRAAQSEVSIVNQEREQEIKDYIDQIKRDGDTIGGVVETVVGGVPVGLGSYVQWDRKLDARLAQAVVSINAFKGVEFGLGFEAGYRKGSQVMDEILWSKEDGYTRRTNNLGGFEGGMTNGQPIVVRGVMKPIPTLYKPLMSVDIETHEPYKATVERSDPTALPAAGMVMEAVVATVLAQEILEKFSSDNLEELKEAVAKHRDYTKNY | soluble
MGSSHHHHHHSSGLVPRGSHMSSENIPLRVQFKRMKAAEWARSDVILLESEIGFETDTGFARAGDGHNRFSDLGYISPLDYNLLTNKPNIDGLATKVETAQKLQQKADKETVYTKAESKQELDKKLNLKGGVMTGQLKFKPAATVAYSSSTGGAVNIDLSSTRGAGVVVYSDNDTSDGPLMSLRTGKETFNQSALFVDYKGTTNAVNIAMRQPTTPNFSSALNITSGNENGSAMQLRGSEKALGTLKITHENPSIGADYDKNAAALSIDIVKKTNGAGTAAQGIYINSTSGTTGKLLRIRNLSDDKFYVKSDGGFYAKETSQIDGNLKLKDPTANDHAATKAYVDKAISELKKLILKK | soluble
MSDVAVAETPAVKTPTKASKATKAKATKIPKVKVVAAHPPFINMITEAVSNLKDRKGSSRVAIFKFITAKYTLGDQVNKTNAHLRSALKKGVVSKVLVQTNGIGANGRFRLAVAEKPPAVKKAATGEQKVMKTVAKKAVSGDKAKKTVAKKTGDKVKKVKSPKRIAKPAVKKVTKKAAAPTKSAANETAPKKAAATEAAPKKAAVTKAATKKTPARKAVGTAPKA | soluble
MLKLQTLQALICIEEVGSLRAAAQLLHLSQPALSAAIQQLEDELKAPLLVRTKRGVSLTSFGQAFMKHARLIVTESRRAQEEIGQLRGRWEGHITFAASPAIALAALPLALASFAREFPDVTVNVRDGMYPAVSPQLRDGTLDFALTAAHKHDIDTDLEAQPLYVSDVVIVGQRQHPMANATRLAELQECRWAFSSAPRGPGAIIRNAFARYGLPEPKLGLVCESFLALPGVVAHSDLLTTMPRTLYERNAFKDQLCSIPLQDALPNPTIYVLRRHDLPVTPAAAGLIRWIQHHALQTGHHHHHH | soluble
AIADTGELHDLTVKGAVVTQLERCEVACQRLFQNLALLGLELQNSESITEGVCDSKAASDLGSSVELLENEERALRLCVDRFVLELRQVENLAKTLDGIREEEERILSLEQRSIEQAERCFYLWNDAREMLRGTRLTSIKEVLESAARYPRIPSWTPLPTSN | soluble
MGSDKIHHHHHHMAKKKTKFMCQECGYESAKWMGKCPGCQSWNSMVEEFTEVKAKSSRSYVTSGAGIAKPQPITKVEREQEPRIDTSMKELNRVLGGGIVPGSLVLVGGDPGIGKSTLLLQLSARLADLKQRVLYISGEESVKQTKIRSDRLGVLSDHLYVLAETDMEKIEQAIGEVDPTLVIIDSIQTVYQDEITSAPGSVAQVRECTASFMRIAKTTGVAIFIVGHVTKQGAIAGPKLLEHMVDSVLYFEGERHHTYRILRAVKNRFGSTNEMGIFEMKESGLEEVANPSEIFLEDRSSGVAGSTVVASMEGTRPVLVELQALISPTSFGNPRRMATGVDHNRISLLMAVLEKRVGMLLQNQDAYVNVAGGVRLDEPAIDLGIAVSIASSFRNQHTNPHEVVIGEIGLTGEVRRVSRIDQRVNEAAKLGFKRVIIPDKNLGGWTIPSTIEVIGVSTVQDALEVTLGR | not soluble
MGHHHHHHSHMPPAAAGPLAGQPRKSSSSRRNAWGNLSYADLITKAIESSAEKRLTLSQIYEWMVKSVPYFKDKGDSNSSAGWKNSIRHNLSLHSKFIRVQNEGTGKSSWWMLNPEGGKSGKSPRRRAASMDNNSKFAKSRSRAAKKKA | soluble
MMEERANLMHMMKLSIKVLLQSALSLGRSLDADHAPLQQFFVVMEHCLKHGLKVKKSFIGQNKSFFGPLELVEKLCPEASDIATSVRNLPELKTAVGRGRAWLYLALMQKKLADYLKVLIDNKHLLSEFYEPEALMMEEEGMVIVGLLVGLNVLDANLCLKGEDLDSQVGVIDFSLYLKDVQDLDGGKEHERITDVLDQKNYVEELNRHLSCTVGDLQTKIDGLEKTNSKLQEELSAATDRICSLQEEQQQLREQNELIRERSEKSVEITKQDTKVELETYKQTRQGLDEMYSDVWKQLKEEKKVRLELEKELELQIGMKTEMEIAMKLLEKDTHEKQDTLVALRQQLEEVKAINLQMFHKAQNAESSLQQKNEAITSFEGKTNQVMSSMKQMEERLQHSERARQGAEERSHKLQQELGGRIGALQLQLSQLHEQCSSLEKELKSEKEQRQALQRELQHEKDTSSLLRMELQQVEGLKKELRELQDEKAELQKICEEQEQALQEMGLHLSQSKLKMEDIKEVNQALKGHAWLKDDEATHCRQCEKEFSISRRKHHCRNCGHIFCNTCSSNELALPSYPKPVRVCDSCHTLLLQRCSSTAS | soluble
MNKKIGITLGDPAGIGPELILKISKHFKEKFTYVIYGEEKTLLEASKLTGIKLNYKKIEKVEEAKERGVYLIDLNVLKVPVVEPSVSSGKAAVAYLARAVADAIRGNIHGILTMPINKFWAKKAGFQYEGQTEFLAKASGTKDYAMMMYSEKLKVVLLTTHIPLKDVPNYVKKEEILKKVRLIRKEFLEKFKFEPLIKVLGLNPHAGEMGELGREEIEEIIPAVEEAKKEGIKVVGPLVPDVAFINPSEEDVFLCMYHDQGLIPFKMLAFDEGVNFTLGLPFIRTSPDHGTAYDIAWKNKARESSSLHALRLIEDLLDKI | soluble
MSLDKPVLLLGEICVDFTLSTPMSSAKMRLGGVVHAARGLWALNVPYSVAAICPDYLVSEAEAYLYAHGCTNFIQVGTVLGAPNVFLIGDAREVGHQGYENILREAKKVLTFDLDEKLRGFKNIVVYPGTFDFEGIVKNLDSDAKITVDIAYDVNDADELSRVYGASHALAISTSSELFSSLALENLGPLLKACKTRSAKHLLLKENRGGSRLFDLESGESWEIPATLARTVNSVGVGDVYTAVFAALIDHGALTAALRGMQAATRYAQTTFPDDFKRDVQRDEGHHHHHH | not soluble
GMADPKELQDKFWKALKSDRTVMLGLDGVEDGHARPMTAQIEGDSGGPIWFFTSKDNALIAMLGQGRRVIGAFSSKGHDLFASISGSLREDTDPAVVDRLWNPYVAAWYEGGKDDPKLALLRLDADHAQIWLNGSSLLAGIKVLLGV | soluble
MMTQVTESAVRSALSRVEDPEIGKPITELGMVKSVSIDGSDVQVEVYLTIAACPMKTTIVTNTEAALKDIDGVGQVHVTTDVMSDEQRRALRVSLRGETSEPVIPFAQPGSTTRVYAVASGKGGVGKSSMTVNLAAALAKRGLSVGILDADIYGHSVPGMLGSDQRPHQVDDMIMPPQAHGVKMISIAHFTEGNAPVVWRGPMLHRAIQQFLTDVFWGDLDILLLDLPPGTGDIAITVAQLIPNAELLIVTTPQAAAAEVAERAGTISVQTNQKVAGVIENMSAMVLPDGTTMDVFGTGGGQKIADRLTAVTGEEVKVIGSVPLDPNLRIGGDVGNPIAISEPHSPTAAAINEIAEHLAHRKVSLVGKTLGLGVKLEHHHHHH | soluble
MAAKNAFYAQSGGVTAVINASAAGVIEAARKQSGKIGRIYAGRNGIIGALTEDLIDTGQESDAAISALRYTPSGAFGSCRYKLKSLEQNRREYERLIEVFKAHDIGYFFYNGGGDSADTCLKVSQLSGTLGYPIQAIHVPKTVDNDLPITDCCPGFGSVAKYIAVSTLEASFDVASMSATSTKVFVLEVMGRHAGWIAAAGGLASSPEREIPVVILFPEISFDKQKFLAKVDSCVKKFGYCSVVVSEGVKGDDGKFLSDQGVRDAFGHAQLGGVAPVVASMVKEGLGLKYHWGVADYLQRAARHIASKTDVEQAYAMGQAAVEFAVQGHNSVMPTIERISARPYQWKVGMAQLSQVANVEKMMPENFITEDGFGITDLCREYLAPLIEGEDYPPYKDGLPDYVRLKNVAVPKKLSGFTL | soluble
MQRMGMVIGVKPEMIAEYKRLHAAVWPEVLALISESNIRNYTIFLREPENLLFGYWEYHGSDFSADMAKIAASPKNQEWWSFTIPCQQPLESRKEGEWWAMMEETFHLD | not soluble
